Source: patent publication US20260022171A1

Assays:
[1] = molecular target: human CD200R1 on cells (human) (UniProt Q8TD46); test: cell-based or functional assay
[2] = molecular target: cynomolgus monkey CD200R1 on cells (cynomolgus monkey); test: flow cytometry, biotinylated antibody on cynomolgus CD4+ T cells (PBMC), streptavidin-PE; concentration not shown
[3] = molecular target: cynomolgus monkey CD200R1 on cells (cynomolgus monkey); test: flow cytometry, biotinylated antibody on cynomolgus CD8+ T cells (PBMC), streptavidin-PE; concentration not shown
[4] = molecular target: human CD200R1 on cells (human) (UniProt Q8TD46); test: flow cytometry, blocking: U937 cells stably expressing hu-CD200R1 incubated with the antibody, then with 55 nM huCD200-Fc-Flag, detected with anti-Flag PE (MFI)

hu-CD200-Fc (Fc fusion), sequence (chain): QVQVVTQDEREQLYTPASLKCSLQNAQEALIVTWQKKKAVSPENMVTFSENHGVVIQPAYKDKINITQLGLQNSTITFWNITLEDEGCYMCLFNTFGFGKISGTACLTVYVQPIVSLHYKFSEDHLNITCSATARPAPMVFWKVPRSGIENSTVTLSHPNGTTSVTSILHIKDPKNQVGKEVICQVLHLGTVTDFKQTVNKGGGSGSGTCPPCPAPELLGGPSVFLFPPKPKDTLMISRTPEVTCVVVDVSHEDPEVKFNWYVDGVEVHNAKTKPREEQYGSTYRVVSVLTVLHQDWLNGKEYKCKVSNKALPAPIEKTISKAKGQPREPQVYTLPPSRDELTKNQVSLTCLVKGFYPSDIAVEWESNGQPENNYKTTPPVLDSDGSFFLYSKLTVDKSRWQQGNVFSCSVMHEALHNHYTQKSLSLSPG

| Substance | pDok2 induction, western blot, U937 cells expressing CD200R1 [1] [nM] | Mean:Comp-FL2-A [2] | Mean:Comp-FL2-A [3] | IC50 [4] [nM] |
| --- | --- | --- | --- | --- |
| hu-CD200-Fc (Fc fusion) | 200 | – | – | – |
| IgG Control (antibody) | – | 403 | 411 | – |
| OX108 (commercial anti-CD200R1 antibody) | 33 | 566 | 425 | 2.8 |
